Substrate in the data set: O=C(O)C(=O)O
Nature of the data set: purified protein. The conditions noted are these: pH 8.0, 5 mM ATP, 0.5 mM CoA, 10 mM MgCl2, 2 mM DTT, oxalate up to 400 μM.

B1: MtAAE3 (Medicago truncatula Acyl Activating Enzyme 3; oxalyl-CoA synthetase) (Medicago truncatula) (protein)
chain: ETATTLTGLLQSVAEKFPSRRAISVAGKFDLTHSQLHELVESAANHLISAGIKPNDVVALTFPNTIEYVIMFLAVIRVRATAAPLNAAYTSEEFEFYLSDSESKLLLTPLEGNNPAQTAATKLNIPLGSVCFNKTEEETKLSISLNQTESANSVSELINEPSDVALFLHTSGTTSRPKGVPLSQHNLVSSVRNIESVYRLSELDSTVIVLPLFHVHGLIAGLLSSLGAGGAVALPAAGRFSASTFWKDMIQYNATWYTAVPTIHQIILDRHQSNPEPVYPKLRFIRSCSASLAPVILGRLEEAFGAPVLEAYAMTEATHLMCSNPLPEDGPHKAGSVGKPVGQEMAILDESGRVLEADVNGEVCIKGENVTKGYKNNEEANKSAFLFGWFHTGDIGYFDSDGYLHLVGRIKELINRGGEKISPIEVDAVLLGHQDVAQAVAFGVPDQKYGEEIHCAIIPREGSNIDAEEVLKYCKTNLTSFKVPKKVFITDSLPKTATGKILRRLVAEHFVSQA
For orientation: Km means the concentration of substrate that gives half-maximal velocity. Turning to B1, the Km was 81.0 ± 8.1 µM.

The values above are taken from publication PMC4763187.
